Positions count from the first letter of the chain named.
B1: PRT-106 (protein)
chain: MRNATEAYAKEVPHQITSVWTKGVTPLTPEQFRYNNEDVIHAPYLAHQGWYDITKTFNGKDNLLCGAATAGNMLHWWFDQNKTEIEAYLSKHPEKQKIIFNNQELFDLKAAIDTKDSQTNSQLFNYFRDKAFPNLSARQLGVMPDLVLDMFINGYYLNVFKTQSTDVNRPYQDKDKRGGIFDAVFTRGDQTTLLTARHDLKNKGLNDISTLIKQELTEGRALALSHTYANVSISHVINLWGADFNAEGNLEAIYVTDSDANASIGMKKYFVGINASGKVAISAKKIEGENIGAQVLGLFTLSSGKDIWQKLS
B2: PRT-108 (protein)
chain: B1 chain with L27P, L45T, N58D, S276A, K278H
B3: PRT-110 (protein)
chain: B1 chain with L27P, I40F, L45T, N58D, Q122A, G204T, L211I, A260S, I273V
B4: PRT-107 (protein)
chain: B1 chain with H47N, T56A, N58D, D173T, L211I, R220K, I273V, S276A, K278H
B5: PRT-109 (protein)
chain: B1 chain with Q15T, L45V, N58D, D207E, R220K, A260D, I273V, S276A
B6: PRT-167 (protein)
chain: MANQEIRYSEVTPYHVTSVWTKGVTPPTDFTQGEDVFHAPYKANQGWYDITKTFNGKDDLLCGAATAGNMLHWWFDQNKDQIKRYLEEHPEKQKINFNGEQMFDVKEAIDTKNSQLDSKLFEYFKEKAFPYLSTKHLGVFPDHVIDMFINGYRLSLTNHGPTPVKEGSKDPRGGIFDAVFTRGDQSKLLTSRHDFKEKNLKEISDLIKKELTEGKALGLSHTYANVRINHVINLWGADFDSNGNLKAIYVTDSDSNASIGMKKYFVGVNSAGKVAISAKEIKEDNIGAQVLGLFTLSTGQDSWNQTN
B7: PRT-170 (protein)
chain: B6 chain with T31I, Q32K, N44H
B8: PRT-172 (protein)
chain: B6 chain with T25K, T31I, Q32K, N44H
B9: PRT-169 (protein)
chain: B6 chain with S114D
B10: PRT-171 (protein)
chain: B6 chain with T31I, Q32K, N44G
B11: PRT-168 (protein)
chain: B6 chain with T28E
B12: PRT-89 (protein)
chain: MANQEIRYSEVTPYHVTSVWTKGVTPPAKFTQGEDVFHAPYVANQGWYDITKTFNGKDDLLCGAATAGNMLHWWFDQNKEKIEAYLKKHPEKQKIMFGDQELLDVRKVINTKDDQTNSELFNYFRDKAFPGLSARRLGVMPDLVLDMFINGYYLNVYKTQTTDVNRTYQEKDRRGGIFDAVFTRGDQSKLLTSRHDFKEKNLKEISDLIKKELTEGKALGLSHTYANVRINHVINLWGADFDSNGNLKAIYVTDSDSNASIGMKKYFVGVNSAGKVAISAKEIKEDNIGAQVLGLFTLSTGQDIWNQTN
B13: PRT-99 (protein)
chain: B12 chain with E91D, D113G, L137I
B14: PRT-90 (protein)
chain: B12 chain with V11E, N201T
B15: PRT-91 (protein)
chain: B12 chain with V11E, V16I, G131N, Y157G, R173K, K211Q, K284E
B16: PRT-92 (protein)
chain: B12 chain with H15T, V16I, K29D, V108A, G131N, R173K, K211Q, N244E
B17: PRT-103 (protein)
chain: B12 chain with E91D, D113G, D114S, L137I, I304S
B18: PRT-95 (protein)
chain: B12 chain with V16I, E91D, D113G, G131N, L137I, Y157G, R173K, K211Q, K284E, I304S
B19: PRT-100 (protein)
chain: B12 chain with E91D, D113G, G131N, L137I, I304S
B20: PRT-101 (protein)
chain: B12 chain with E91D, D113G, L137I, R173K, I304S
B21: PRT-93 (protein)
chain: B12 chain with E91D, L137I, I304S
B22: PRT-97 (protein)
chain: B12 chain with D113G, L137I, I304S
B23: PRT-105 (protein)
chain: B12 chain with K81E, E91D, D113G, L137I, I304S
B24: PRT-94 (protein)
chain: B12 chain with V11E, E91D, D113G, L137I, N201T, I304S
B25: PRT-98 (protein)
chain: B12 chain with E91D, D113G, I304S
B26: PRT-104 (protein)
chain: B12 chain with E91D, D113G, L137I, Y157T, I304S
B27: PRT-96 (protein)
chain: B12 chain with H15T, K29D, E91D, V108A, D113G, L137I, N244E, I304S
B28: PRT-102 (protein)
chain: B12 chain with E91D, D113G, L137I, K211Q, I304S

Target: pooled human IgG (human IgG1,2,3 and 4)

Protein	Enzyme Activity Endpoint Assay: Fab′2 [ng/µL]	Enzyme Activity Endpoint Assay: Fc [ng/µL]	Enzyme Activity Endpoint Assay: IgG [ng/µL]	Enzyme Activity Endpoint Assay: scIgG [ng/µL]	Enzyme Activity Endpoint Assay: Fab'2 [ng/µL]
B1	739	202	0	0	–
B2	666	203	0	0	–
B3	575	136	0	0	–
B4	553	200	0	117	–
B5	457	181	28	0	–
B6	–	161	0	0	572
B7	–	193	0	0	755
B8	–	215	0	0	821
B9	–	188	0	0	658
B10	–	187	23	0	765
B11	–	159	0	0	628
B12	45	89	34	0	–
B13	489	152	0	0	–
B14	44	106	21	0	–
B15	40	102	16	9	–
B16	40	104	8	6	–
B17	544	158	0	0	–
B18	242	118	102	0	–
B19	513	178	0	0	–
B20	655	204	0	0	–
B21	38	91	11	0	–
B22	524	185	0	0	–
B23	663	192	0	13	–
B24	547	120	0	0	–
B25	592	180	0	0	–
B26	259	130	0	0	–
B27	482	156	0	0	–
B28	607	160	0	0	–

Reference: patent publication US20250027068
